Experimental data as given in paper PMC5374589.

Target: Murine PD-L1 (murine) (UniProt Q9EP73)
Chain of UniProt Q9EP73 (Q9EP73 19-290): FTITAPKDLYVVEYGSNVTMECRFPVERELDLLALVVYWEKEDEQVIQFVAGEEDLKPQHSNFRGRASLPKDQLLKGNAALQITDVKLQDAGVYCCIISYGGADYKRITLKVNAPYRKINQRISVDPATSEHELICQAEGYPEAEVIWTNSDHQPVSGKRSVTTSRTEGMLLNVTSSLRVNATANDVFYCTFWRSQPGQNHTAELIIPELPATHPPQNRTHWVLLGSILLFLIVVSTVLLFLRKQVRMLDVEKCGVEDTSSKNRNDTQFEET

With PD-1-CD28 fusion receptor the T cell-induced lysis of EG7-PD-L1 target cells in co-culture with PD-1-CD28 fusion receptor transduced OVA-specific CD8+ T cells was 3 fold.
